Measured values reported in patent US20220025003A1 (University of Washington, published 2022).
Read-outs that look alike come from different tables or passages of the source.

What was measured:
[1] = biological target: T1, NS3a/grazoprevir complex (biotinylated NS3a_3 with grazoprevir) (hepatitis C virus genotype 1a); experiment: yeast surface display, flow cytometry
T1 construct: See note of m30; also called grazoprevir/NS3a complex

[2] = biological target: T2, NS3aH1-mCherry, no drug (DMSO) (hepatitis C virus); experiment: colocalization, confocal microscopy, NIH3T3 cells, no drug
T2 construct: also called NS3a-mCherry

[3] = biological target: T3, NS3a/danoprevir complex (biotinylated NS3a_3 with danoprevir) (hepatitis C virus genotype 1a); experiment: yeast surface display
T3 construct: See note of m30; also called danoprevir/NS3a complex

[4] = biological target: T4, NS3a/asunaprevir complex (biotinylated NS3a_3 with asunaprevir) (hepatitis C virus genotype 1a); experiment: ratio of apparent KD against the danoprevir/NS3a complex of the same clone
T4 construct: See note of m30

[5] = biological target: T1, NS3a/grazoprevir complex (biotinylated …); experiment: as above
[6] = biological target: T4, NS3a/asunaprevir complex (biotinylated …); experiment: yeast surface display titration, apparent KD; NS3a_3, 10 drug:1 NS3a
[7] = biological target: T1, NS3a/grazoprevir complex (biotinylated …); experiment: as above
[8] = biological target: T3, NS3a/danoprevir complex (biotinylated …); experiment: as above
[9] = biological target: T4, NS3a/asunaprevir complex (biotinylated …); experiment: yeast surface display; against the NS3a/danoprevir complex
[10] = biological target: T1, NS3a/grazoprevir complex (biotinylated …); experiment: as above
[11] = biological target: T3, NS3a/danoprevir complex (biotinylated …)
[12] = biological target: T4, NS3a/asunaprevir complex (biotinylated …); experiment: yeast surface display; relative binding, too weak for a full titration curve
[13] = biological target: T1, NS3a/grazoprevir complex (biotinylated …); experiment: as above
[14] = biological target: T3, NS3a/danoprevir complex (biotinylated …); experiment: as above
[15] = biological target: T1, NS3a/grazoprevir complex (biotinylated …); experiment: yeast surface display
[16] = biological target: T3, NS3a/danoprevir complex (biotinylated …); experiment: yeast surface display, flow cytometry

B1: G3 M112E, yeast surface display (designed binder)
chain: DIEKLCKKAEEEAKEAQEKADELRQRHPDSQAAEDAEDLANEAEAAVLAACSLAQEHPNADIAKLCIKAASEAAEAASKAAELAQRHPDSQAARDAIKLASQAARAVILAIELAAENPNADIAKLCIKAASEAAEAASKAAELAQRHPDSQAARDAIKLASQAAEAVERAIWLAAENPNADIAKKCIKAASEAAEEASKAAEEAQRHPDSQKARDEIKEASQKAEEVKERCKS
notes: also called G3 interface point mutant M112E
[1]
  binding result: no binding

B2: G3 A175Q, yeast surface display (designed binder)
chain: DIEKLCKKAEEEAKEAQEKADELRQRHPDSQAAEDAEDLANEAEAAVLAACSLAQEHPNADIAKLCIKAASEAAEAASKAAELAQRHPDSQAARDAIKLASQAARAVILAIMLAAENPNADIAKLCIKAASEAAEAASKAAELAQRHPDSQAARDAIKLASQAAEAVERAIWLAQENPNADIAKKCIKAASEAAEEASKAAEEAQRHPDSQKARDEIKEASQKAEEVKERCKS
notes: See note of m25; also called G3 interface point mutant A175Q
[1]
  binding result: no binding

B3: Tom20-BFP-ANR-ANR (other)
chain: MVGRNSAIAAGVCGALFIGYCIYFDRKRRSDPNFMSELIKENMHMKLYMEGTVDNHHFKCTSEGEGKPYEGTQTMRIKVVEGGPLPFAFDILATSFLYGSKTFINHTQGIPDFFKQSFPEGFTWERVTTYEDGGVLTATQDTSLQDGCLIYNVKIRGVNFTSNGPVMQKKTLGWEAFTETLYPADGGLEGRNDMALKLVGGSHLIANIKTTYRSKKPAKNLKMPGVYYVDYRLERIKEANNETYVEQHEVAVARYCDLPSKLGHKLNSGSGEQKLISEEDLGSGTGSGTGSGTGTTSGTGTGGSTGGELDELVYLLDGPGYDPIHSDGSGTGSGTGSGTGTTSGTGTGGSTGGELDELVYLLDGPGYDPIHSDGSGATNFSLLKQAGDVEENPG
[2]
  binding result: binds

B4: ANR-ANR-BFP-CAAX (other)
chain: MGELDELVYLLDGPGYDPIHSDGSGTGSGTGSGTGTTSGTGTGGSTGGELDELVYLLDGPGYDPIHSDGSGTGSGTGSGTGTTSGTGTGGSTGEQKLISEEDLGSGSSELIKENMHMKLYMEGTVDNHHFKCTSEGEGKPYEGTQTMRIKVVEGGPLPFAFDILATSFLYGSKTFINHTQGIPDFFKQSFPEGFTWERVTTYEDGGVLTATQDTSLQDGCLIYNVKIRGVNFTSNGPVMQKKTLGWEAFTETLYPADGGLEGRNDMALKLVGGSHLIANIKTTYRSKKPAKNLKMPGVYYVDYRLERIKEANNETYVEQHEVAVARYCDLPSKLGHKLNRKHKEKMSKDGKKKKKKSKTKCVIM
[2]
  binding result: binds

B5: DNCR1, yeast surface display (C-terminal fusion to Aga2) (designed binder)
chain: KDNSSTIEGRYPYDVPDYALQASGGGGSGGGGSGGGGSASHMSSDEEEARELIERAKEAAERAQEAAERTGDPRVRELARELKRLAQEAAEEVKRDPSSSDVNEALKLIVEAIEAAVDALEAAERTGDPEVRELARELVRLAVEAAEEVQRNPSSSDVNEALLSIVIAIEAAVHALEAAERTGDPEVRELARELVRLAVEAAEEVQRNPSSREVEHALMKIVLAIYEAEESLREAEESGDPEKREKARERVREAVERAEEVQRDPSGWLNHLEGGGSEQKLISEEDL
[3]
  Kd: < 200 nM
[4]
  Fold drug specificity: 33 fold
[5]
  Fold drug specificity: 15 fold
[6]
  Kd: 6.3 µM
[7]
  Kd: 2900 nM
[8]
  Kd: 190 nM

B6: DNCR2, yeast surface display (C-terminal fusion to Aga2) (designed binder)
chain: KDNSSTIEGRYPYDVPDYALQASGGGGSGGGGSGGGGSASHMSSDEEEARELIERAKEAAERAQEAAERTGDPRVRELARELKRLAQEAAEEVKRDPSSSDVNEALKLIVEAIEAAVDALEAAERTGDPEVRELARELVRLAVEAAEEVQRNPSSSDVNEALHSIVYAIEAAIFALEAAERTGDPEVRELARELVRLAVEAAEEVQRNPSSRNVEHALMRIVLAIYLAEENLREAEESGDPEKREKARERVREAVERAEEVQRDPSGWLNHLEGGGSEQKLISEEDL
[9]
  fold specificity: > 20000 fold
[10]
  fold specificity: > 20000 fold
[11]
  Kd: 0.036 nM
[4]
  Fold drug specificity: 21000 fold
[5]
  Fold drug specificity: 56000 fold
[6]
  Kd: 0.77 µM
[7]
  Kd: 2000 nM

B7: D5, yeast surface display (C-terminal fusion to Aga2) (designed binder)
chain: KDNSSTIEGRYPYDVPDYALQASGGGGSGGGGSGGGGSASHMSSDEEEARELIERAKEAAERAQEAAERTGDPRVRELARELKRLAQEAAEEVKRDPSSSDVNEALKLIVEAIEAAVDALEAAERTGDPEVRELARELVRLAVEAAEEVQRNPSSSDVNEALLTIVIAIEAAVNALEAAERTGDPEVRELARELVRLAVEAAEEVQRNPSSREVNIALWKIVLAIQEAVESLREAEESGDPEKREKARERVREAVERAEEVQRDPSGWLNHLEGGGSEQKLISEEDL
[12]
  binding result: binds
[13]
  binding result: binds
[14]
  binding result: binds

B8: GNCR1, yeast surface display (C-terminal fusion to Aga2) (designed binder)
chain: KDNSSTIEGRYPYDVPDYALQASGGGGSGGGGSGGGGSASHMDIEKLCKKAEEEAKEAQEKADELRQRHPDSQAAEDAEDLANLAVAAVLTACLLAQEHPNADIAKLCIKAASEAAEAASKAAELAQRHPDSQAARDAIKLASQAARAVILAIMLAAENPNADIAKLCIKAASEAAEAASKAAELAQRHPDSQAARDAIKLASQAAEAVERAIWLAAENPNADIAKKCIKAASEAAEEASKAAEEAQRHPDSQKARDEIKEASQKAEEVKERCKSLEGGGSEQKLISEEDL
[15]
  Kd: < 200 nM
[7]
  Kd: 140 nM

B9: D5 W177D, yeast surface display (designed binder)
chain: SSDEEEARELIERAKEAAERAQEAAERTGDPRVRELARELKRLAQEAAEEVKRDPSSSDVNEALKLIVEAIEAAVDALEAAERTGDPEVRELARELVRLAVEAAEEVQRNPSSSDVNEALLTIVIAIEAAVNALEAAERTGDPEVRELARELVRLAVEAAEEVQRNPSSREVNIALDKIVLAIQEAVESLREAEESGDPEKREKARERVREAVERAEEVQRDPSGWLNH
notes: also called point mutant of the D5 interface, W177D
[16]
  binding result: no binding (tested: 1 µM NS3a with avidity, 10 µM danoprevir)
